Molecular target: human complement C3b (human) (UniProt P01024)
UniProt P01024, sequence (P01024 23-667, chain 1 of 2): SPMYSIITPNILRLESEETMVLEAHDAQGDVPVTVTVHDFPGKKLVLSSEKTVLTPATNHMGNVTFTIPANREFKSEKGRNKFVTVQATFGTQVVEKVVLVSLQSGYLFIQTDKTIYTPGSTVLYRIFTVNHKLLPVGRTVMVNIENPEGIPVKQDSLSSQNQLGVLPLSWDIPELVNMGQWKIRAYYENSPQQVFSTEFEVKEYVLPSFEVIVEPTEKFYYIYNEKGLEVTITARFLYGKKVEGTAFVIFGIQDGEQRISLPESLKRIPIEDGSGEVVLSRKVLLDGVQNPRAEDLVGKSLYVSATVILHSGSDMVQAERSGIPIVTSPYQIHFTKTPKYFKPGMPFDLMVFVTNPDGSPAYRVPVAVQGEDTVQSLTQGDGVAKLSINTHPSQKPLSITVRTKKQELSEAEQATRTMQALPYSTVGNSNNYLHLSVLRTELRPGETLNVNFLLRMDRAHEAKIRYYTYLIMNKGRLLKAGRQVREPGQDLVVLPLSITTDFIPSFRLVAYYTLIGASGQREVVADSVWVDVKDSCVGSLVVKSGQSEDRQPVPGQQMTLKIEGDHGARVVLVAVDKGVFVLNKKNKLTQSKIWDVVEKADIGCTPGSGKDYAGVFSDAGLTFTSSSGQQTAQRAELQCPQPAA
UniProt P01024, sequence (P01024 749-1663, chain 2 of 2): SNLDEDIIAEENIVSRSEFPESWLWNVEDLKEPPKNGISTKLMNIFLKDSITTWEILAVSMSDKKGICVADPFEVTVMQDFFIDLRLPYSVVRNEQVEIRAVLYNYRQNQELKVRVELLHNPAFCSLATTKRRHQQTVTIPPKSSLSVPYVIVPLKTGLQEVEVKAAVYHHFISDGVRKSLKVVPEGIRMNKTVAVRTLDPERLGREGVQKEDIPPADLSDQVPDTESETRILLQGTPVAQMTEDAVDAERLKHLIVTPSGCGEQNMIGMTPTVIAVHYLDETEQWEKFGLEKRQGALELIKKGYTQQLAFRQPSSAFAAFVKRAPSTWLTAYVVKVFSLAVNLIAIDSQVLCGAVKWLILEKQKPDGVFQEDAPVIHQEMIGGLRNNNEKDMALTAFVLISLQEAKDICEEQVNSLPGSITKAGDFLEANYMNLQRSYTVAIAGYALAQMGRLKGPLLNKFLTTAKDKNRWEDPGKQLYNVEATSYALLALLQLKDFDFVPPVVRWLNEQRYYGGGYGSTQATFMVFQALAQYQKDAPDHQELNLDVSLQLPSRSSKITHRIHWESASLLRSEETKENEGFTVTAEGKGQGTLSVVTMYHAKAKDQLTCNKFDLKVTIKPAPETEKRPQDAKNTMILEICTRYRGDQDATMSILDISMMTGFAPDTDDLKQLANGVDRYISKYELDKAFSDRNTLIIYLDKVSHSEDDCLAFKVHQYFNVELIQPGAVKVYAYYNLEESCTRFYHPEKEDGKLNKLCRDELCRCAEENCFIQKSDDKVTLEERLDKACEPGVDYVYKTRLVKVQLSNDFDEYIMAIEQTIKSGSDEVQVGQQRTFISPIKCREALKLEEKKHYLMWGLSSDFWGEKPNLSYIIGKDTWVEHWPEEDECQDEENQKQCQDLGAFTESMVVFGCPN

## recombinant SARS-CoV-2 ORF8 protein, His-tagged (from UniProt P0DTC8 18-121) (natural protein)
  IC50 of inhibition of normal human serum-induced hemolysis of rabbit erythrocytes, ORF8 39 nM to 5000 nM: 2300 nM
